Reference: patent publication US20120328590A1

Molecular target: actin (endogenous nuclear and cytoplasmic actin of Mel-Juso human melanoma cells) (human)
Assay: cell-based or functional assay

DNase 1 construct C11 (signal peptide deleted, A114F actin-binding-site mutation, SV-40 NLS at the C-terminus) (from UniProt P24855 23-282) (enzyme)
TUNEL-positive (apoptotic) cells by laser scanning cytometry, mean: 11% | cell survival in Colony Forming Assay (CFA), compared to Cat-GFP control: 23.2%

DNase 1 construct C13 (signal peptide deleted, A114F actin-binding-site mutation, SV-40 NLS at the N-terminus) (from UniProt P24855 23-282) (enzyme)
TUNEL-positive (apoptotic) cells by laser scanning cytometry, mean: 5.4% | cell survival in Colony Forming Assay (CFA), compared to Cat-GFP control: 32.4%
